B1: Recombinant Nme2Cas9 (Cas9 of Neisseria meningitidis strain Del1444), purified from E. coli (protein)
chain: PKKKRKVNAMAAFKPNPINYILGLDIGIASVGWAMVEIDEEENPIRLIDLGVRVFERAEVPKTGDSLAMARRLARSVRRLTRRRAHRLLRARRLLKREGVLQAADFDENGLIKSLPNTPWQLRAAALDRKLTPLEWSAVLLHLIKHRGYLSQRKNEGETADKELGALLKGVANNAHALQTGDFRTPAELALNKFEKESGHIRNQRGDYSHTFSRKDLQAELILLFEKQKEFGNPHVSGGLKEGIETLLMTQRPALSGDAVQKMLGHCTFEPAEPKAAKNTYTAERFIWLTKLNNLRILEQGSERPLTDTERATLMDEPYRKSKLTYAQARKLLGLEDTAFFKGLRYGKDNAEASTLMEMKAYHAISRALEKEGLKDKKSPLNLSSELQDEIGTAFSLFKTDEDITGRLKDRVQPEILEALLKHISFDKFVQISLKALRRIVPLMEQGKRYDEACAEIYGDHYGKKNTEEKIYLPPIPADEIRNPVVLRALSQARKVINGVVRRYGSPARIHIETAREVGKSFKDRKEIEKRQEENRKDREKAAAKFREYFPNFVGEPKSKDILKLRLYEQQHGKCLYSGKEINLVRLNEKGYVEIDHALPFSRTWDDSFNNKVLVLGSENQNKGNQTPYEYFNGKDNSREWQEFKARVETSRFPRSKKQRILLQKFDEDGFKECNLNDTRYVNRFLCQFVADHILLTGKGKRRVFASNGQITNLLRGFWGLRKVRAENDRHHALDAVVVACSTVAMQQKITRFVRYKEMNAFDGKTIDKETGKVLHQKTHFPQPWEFFAQEVMIRVFGKPDGKPEFEEADTPEKLRTLLAEKLSSRPEAVHEYVTPLFVSRAPNRKMSGAHKDTLRSAKRFVKHNEKISVKRVWLTEIKLADLENMVNYKNGREIELYEALKARLEAYGGNAKQAFDPKDNPFYKKGGQLVKAVRVEKTQESGVLLNKKNAYTIADNGDMVRVDVFCKVDKKGKNQYFIVPIYAWQVAENILPDIDCKGYRIDDSYTFCFSLHKYDLIAFQKDEKSKVEFAYYINCDSSNGRFYLAWHDKGSKEQQFRISTQNLVLIQKYQVNELGKEIRPCRLKKRPPVRGGGGSGGGGSGGGGSPAAKKKKLDGGGSKRPAATKKAGQAKKKK
B2: Nme1Cas9-Nme2Cas9PID chimera (Nme1Cas9 with its PID replaced by that of Nme2Cas9) (protein)
chain: MAAFKPNSINYILGLDIGIASVGWAMVEIDEEENPIRLIDLGVRVFERAEVPKTGDSLAMARRLARSVRRLTRRRAHRLLRTRRLLKREGVLQAANFDENGLIKSLPNTPWQLRAAALDRKLTPLEWSAVLLHLIKHRGYLSQRKNEGETADKELGALLKGVAGNAHALQTGDFRTPAELALNKFEKESGHIRNQRSDYSHTFSRKDLQAELILLFEKQKEFGNPHVSGGLKEGIETLLMTQRPALSGDAVQKMLGHCTFEPAEPKAAKNTYTAERFIWLTKLNNLRILEQGSERPLTDTERATLMDEPYRKSKLTYAQARKLLGLEDTAFFKGLRYGKDNAEASTLMEMKAYHAISRALEKEGLKDKKSPLNLSPELQDEIGTAFSLFKTDEDITGRLKDRIQPEILEALLKHISFDKFVQISLKALRRIVPLMEQGKRYDEACAEIYGDHYGKKNTEEKIYLPPIPADEIRNPVVLRALSQARKVINGVVRRYGSPARIHIETAREVGKSFKDRKEIEKRQEENRKDREKAAAKFREYFPNFVGEPKSKDILKLRLYEQQHGKCLYSGKEINLGRLNEKGYVEIDHALPFSRTWDDSFNNKVLVLGSENQNKGNQTPYEYFNGKDNSREWQEFKARVETSRFPRSKKQRILLQKFDEDGFKERNLNDTRYVNRFLCQFVADRMRLTGKGKKRVFASNGQITNLLRGFWGLRKVRAENDRHHALDAVVVACSTVAMQQKITRFVRYKEMNAFDGKTIDKETGEVLHQKTHFPQPWEFFAQEVMIRVFGKPDGKPEFEEADTLEKLRTLLAEKLSSRPEAVHEYVTPLFVSRAPNRKMSGAHKDTLRSAKRFVKHNEKISVKRVWLTEIKLADLENMVNYKNGREIELYEALKARLEAYGGNAKQAFDPKDNPFYKKGGQLVKAVRVEKTQESGVLLNKKNAYTIADNGDMVRVDVFCKVDKKGKNQYFIVPIYAWQVAENILPDIDCKGYRIDDSYTFCFSLHKYDLIAFQKDEKSKVEFAYYINCDSSNGRFYLAWHDKGSKEQQFRISTQNLVLIQKYQVNELGKEIRPCRLKKRPPVR
B3: Nme1Cas9 (Cas9 of Neisseria meningitidis strain 8013), recombinant, purified from E. coli (protein)
chain: MAAFKPNSINYILGLDIGIASVGWAMVEIDEEENPIRLIDLGVRVFERAEVPKTGDSLAMARRLARSVRRLTRRRAHRLLRTRRLLKREGVLQAANFDENGLIKSLPNTPWQLRAAALDRKLTPLEWSAVLLHLIKHRGYLSQRKNEGETADKELGALLKGVAGNAHALQTGDFRTPAELALNKFEKESGHIRNQRSDYSHTFSRKDLQAELILLFEKQKEFGNPHVSGGLKEGIETLLMTQRPALSGDAVQKMLGHCTFEPAEPKAAKNTYTAERFIWLTKLNNLRILEQGSERPLTDTERATLMDEPYRKSKLTYAQARKLLGLEDTAFFKGLRYGKDNAEASTLMEMKAYHAISRALEKEGLKDKKSPLNLSPELQDEIGTAFSLFKTDEDITGRLKDRIQPEILEALLKHISFDKFVQISLKALRRIVPLMEQGKRYDEACAEIYGDHYGKKNTEEKIYLPPIPADEIRNPVVLRALSQARKVINGVVRRYGSPARIHIETAREVGKSFKDRKEIEKRQEENRKDREKAAAKFREYFPNFVGEPKSKDILKLRLYEQQHGKCLYSGKEINLGRLNEKGYVEIDHALPFSRTWDDSFNNKVLVLGSENQNKGNQTPYEYFNGKDNSREWQEFKARVETSRFPRSKKQRILLQKFDEDGFKERNLNDTRYVNRFLCQFVADRMRLTGKGKKRVFASNGQITNLLRGFWGLRKVRAENDRHHALDAVVVACSTVAMQQKITRFVRYKEMNAFDGKTIDKETGEVLHQKTHFPQPWEFFAQEVMIRVFGKPDGKPEFEEADTLEKLRTLLAEKLSSRPEAVHEYVTPLFVSRAPNRKMSGQGHMETVKSAKRLDEGVSVLRVPLTQLKLKDLEKMVNREREPKLYEALKARLEAHKDDPAKAFAEPFYKYDKAGNRTQQVKAVRVEQVQKTGVWVRNHNGIADNATMVRVDVFEKGDKYYLVPIYSWQVAKGILPDRAVVQGKDEEDWQLIDDSFNFKFSLHPNDLVEVITKKARMFGYFASCHRGTGNINIRIHDLDHKIGKNGILEGIGVKTALSFQKYQIDELGKEIRPCRLKKRPPVR

| Protein | in vitro DNA cleavage by Cas9 in the presence of Acr (10:1 Acr:Cas9 molar ratio) (AcrIIC1Nme) | in vitro DNA cleavage by Cas9 in the presence of Acr (10:1 Acr:Cas9 molar ratio) (AcrIIC3Nme) | in vitro DNA cleavage by Cas9 in the presence of Acr (10:1 Acr:Cas9 molar ratio) (AcrIIC5Smu) | in vitro DNA cleavage by Cas9 in the presence of Acr (10:1 Acr:Cas9 molar ratio) (AcrIIC4Hpa) | in vitro DNA cleavage by Cas9 in the presence of Acr (10:1 Acr:Cas9 molar ratio) (AcrIIC2Nme) | in vitro DNA cleavage by the Nme1Cas9-Nme2Cas9PID chimera in the presence of Acr (10 uM Cas9-sgRNA + 100 uM Acr) (AcrIIC5Smu) | in vitro DNA cleavage by Cas9 in the presence of Acr (10:1 Acr:Cas9 molar ratio) (AcrE2) |
| --- | --- | --- | --- | --- | --- | --- | --- |
| B1 | completely inhibited Nme2Cas9 | completely inhibited Nme2Cas9 | did not inhibit Nme2Cas9 in vitro even at a 10-fold molar excess | completely inhibited Nme2Cas9 | completely inhibited Nme2Cas9 |  |  |
| B2 |  |  |  |  |  | No inhibition was observed by AcrIIC5Smu on this protein chimera |  |
| B3 | all 5 families inhibited Nme1Cas9 | all 5 families inhibited Nme1Cas9 | all 5 families inhibited Nme1Cas9 | all 5 families inhibited Nme1Cas9 | all 5 families inhibited Nme1Cas9 |  | AcrE2 failed to do so |
